Consider one molecule from patent publication US20090166224A1 (published 2009).

Common to all, as to test: human serum on Con A/WGA/Jacalin column, lectin-specific displacer fraction, LC-MS/MS; grade = SEQUEST rank group (+ = ranks 1-5, ++++ = 16-20)
The target of assay [1] is T1, INTER-ALPHA-TRYPSIN INHIBITOR HEAVY CHAIN H1 (human, UniProt P19827 35-672).
T1 construct: from human serum; also called ITH1
T1 sequence (looked up): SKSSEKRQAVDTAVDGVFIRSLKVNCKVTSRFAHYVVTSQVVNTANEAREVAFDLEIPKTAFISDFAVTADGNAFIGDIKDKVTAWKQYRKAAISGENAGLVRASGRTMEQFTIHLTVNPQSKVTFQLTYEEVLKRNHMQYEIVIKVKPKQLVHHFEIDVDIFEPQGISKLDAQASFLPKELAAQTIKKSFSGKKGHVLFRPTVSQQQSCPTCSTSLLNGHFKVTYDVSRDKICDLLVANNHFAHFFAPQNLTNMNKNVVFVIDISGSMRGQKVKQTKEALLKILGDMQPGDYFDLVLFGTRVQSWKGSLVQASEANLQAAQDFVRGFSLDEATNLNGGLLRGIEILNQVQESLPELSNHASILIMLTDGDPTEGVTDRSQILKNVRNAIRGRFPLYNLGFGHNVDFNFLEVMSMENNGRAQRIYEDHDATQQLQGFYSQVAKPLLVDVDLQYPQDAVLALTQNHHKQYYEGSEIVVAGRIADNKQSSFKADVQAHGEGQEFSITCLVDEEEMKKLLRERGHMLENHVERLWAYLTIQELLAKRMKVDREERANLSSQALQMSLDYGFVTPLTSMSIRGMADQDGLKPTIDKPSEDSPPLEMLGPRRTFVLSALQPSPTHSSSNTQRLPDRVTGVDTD

Assay [2] deals with T2, INTER-ALPHA-TRYPSIN INHIBITOR HEAVY CHAIN H2 (human, UniProt P19823 55-702).
T2 construct: from human serum; also called ITH2
T2 sequence (looked up): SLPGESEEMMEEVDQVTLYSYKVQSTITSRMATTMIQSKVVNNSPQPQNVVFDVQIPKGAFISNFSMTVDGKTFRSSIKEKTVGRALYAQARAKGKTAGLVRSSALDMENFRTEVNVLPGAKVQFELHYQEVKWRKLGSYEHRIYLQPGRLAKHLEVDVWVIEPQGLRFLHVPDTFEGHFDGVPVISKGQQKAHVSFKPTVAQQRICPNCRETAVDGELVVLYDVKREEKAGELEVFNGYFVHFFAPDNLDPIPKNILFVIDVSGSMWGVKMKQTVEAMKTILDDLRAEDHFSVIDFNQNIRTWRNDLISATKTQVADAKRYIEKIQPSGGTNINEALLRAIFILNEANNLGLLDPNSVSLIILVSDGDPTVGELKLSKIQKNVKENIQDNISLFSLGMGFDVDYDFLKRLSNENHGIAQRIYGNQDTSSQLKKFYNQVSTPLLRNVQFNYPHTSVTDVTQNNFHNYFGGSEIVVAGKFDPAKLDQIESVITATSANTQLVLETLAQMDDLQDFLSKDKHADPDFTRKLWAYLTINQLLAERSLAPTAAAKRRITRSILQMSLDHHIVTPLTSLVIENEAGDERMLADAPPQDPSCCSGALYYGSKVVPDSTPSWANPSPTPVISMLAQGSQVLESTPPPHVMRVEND

For another assay, the target named is T3, APOLIPOPROTEIN C-III (human, UniProt P02656 21-99).
T3 construct: from human serum; also called APC3

In assay [3] the target is T4, HAPTOGLOBIN-RELATED PROTEIN (human, UniProt P00739 1-348, limits assumed).
T4 construct: from human serum; also called HPTR
T4 sequence (looked up): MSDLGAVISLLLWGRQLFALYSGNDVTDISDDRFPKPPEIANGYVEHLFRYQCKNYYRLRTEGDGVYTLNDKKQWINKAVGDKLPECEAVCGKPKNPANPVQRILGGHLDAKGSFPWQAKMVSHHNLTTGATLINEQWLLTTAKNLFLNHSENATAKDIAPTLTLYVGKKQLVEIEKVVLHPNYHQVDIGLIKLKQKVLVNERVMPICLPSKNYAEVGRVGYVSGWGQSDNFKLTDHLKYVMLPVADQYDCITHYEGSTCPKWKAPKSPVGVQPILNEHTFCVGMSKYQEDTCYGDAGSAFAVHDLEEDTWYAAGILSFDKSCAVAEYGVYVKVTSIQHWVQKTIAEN

The target of assay [4] is T5, IG GAMMA-3 CHAIN C REGION (human, UniProt P01860-1 1-377).
T5 construct: domain: C region; Polyclonal serum IgG3, identified through its constant region; variable regions and light chains not defined; also called GC3

For the next assay, the target named is T6, Alpha-1-antitrypsin (human, UniProt P01009 25-418).
T6 construct: also called A1AT; α1-antitrypsin

For a further assay, the target named is T7, APOLIPOPROTEIN E (human, UniProt P02649 19-317).
T7 construct: from human serum; also called APE
T7 sequence (P02649 19-317 limits assumed): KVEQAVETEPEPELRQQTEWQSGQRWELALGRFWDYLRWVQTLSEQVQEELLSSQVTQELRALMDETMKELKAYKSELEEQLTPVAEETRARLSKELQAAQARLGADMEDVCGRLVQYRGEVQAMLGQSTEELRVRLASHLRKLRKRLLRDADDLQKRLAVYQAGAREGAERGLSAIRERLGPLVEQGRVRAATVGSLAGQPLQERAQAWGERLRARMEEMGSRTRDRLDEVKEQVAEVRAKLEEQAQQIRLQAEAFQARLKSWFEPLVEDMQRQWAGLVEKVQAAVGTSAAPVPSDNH

T5 sequence (P01860 other isoform, or with tags, fused parts or gaps limits assumed): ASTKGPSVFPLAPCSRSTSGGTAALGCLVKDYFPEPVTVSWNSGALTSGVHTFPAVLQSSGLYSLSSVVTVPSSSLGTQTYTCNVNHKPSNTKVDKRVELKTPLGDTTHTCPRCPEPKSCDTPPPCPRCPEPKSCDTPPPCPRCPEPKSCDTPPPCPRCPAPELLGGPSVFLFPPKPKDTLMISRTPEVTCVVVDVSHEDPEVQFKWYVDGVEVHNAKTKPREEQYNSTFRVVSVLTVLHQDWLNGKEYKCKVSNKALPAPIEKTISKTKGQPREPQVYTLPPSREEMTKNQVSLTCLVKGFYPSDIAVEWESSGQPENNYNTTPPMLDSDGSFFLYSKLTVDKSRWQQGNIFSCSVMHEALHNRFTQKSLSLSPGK
T3 sequence (P02656 21-99 limits assumed): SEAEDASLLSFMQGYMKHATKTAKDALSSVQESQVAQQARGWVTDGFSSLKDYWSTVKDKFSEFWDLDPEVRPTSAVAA
T6 sequence (P01009 25-418 limits assumed): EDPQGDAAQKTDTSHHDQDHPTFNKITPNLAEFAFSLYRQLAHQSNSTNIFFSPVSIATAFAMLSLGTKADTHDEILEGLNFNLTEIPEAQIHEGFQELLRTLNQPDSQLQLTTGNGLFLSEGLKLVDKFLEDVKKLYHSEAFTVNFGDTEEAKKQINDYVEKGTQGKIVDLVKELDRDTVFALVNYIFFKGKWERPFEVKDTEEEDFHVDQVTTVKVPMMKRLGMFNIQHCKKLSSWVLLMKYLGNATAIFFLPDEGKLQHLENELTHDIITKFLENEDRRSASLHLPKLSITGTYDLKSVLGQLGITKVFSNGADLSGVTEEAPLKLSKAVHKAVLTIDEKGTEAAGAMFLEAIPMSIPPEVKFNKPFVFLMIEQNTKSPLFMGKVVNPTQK

B1: Jacalin lectin, agarose-bound (other)
chain 1: GKAFDDGAFTGIREINLSYNKETAIGDFQVVYDLNGSPYVGQNHKSFITGFTPVKISLDFPSEYIMEVSGYTGNVSGYVVVRSLTFKTNKKTYGPYGVTSGTPFNLPIENGLIVGFKGSIGYWLDYFSMYLSL
chain 2: NEQSGKSQTVIVGSWGAKVS
modifications: immobilized on agarose
notes: Lectin; released with galactose; Coated on the plate in the lectin ELISA
As for B1, the “SEQUEST ranking (relative abundance in the Jacalin displacement fraction)” value in assay [1] was in the range of 6 to 10 rank; in assay [2] it was 16 to 20 rank; with APOLIPOPROTEIN C-III, 6 to 10 rank; in assay [3] it was 6 to 10 rank; in assay [4] it was 16 to 20 rank; in the assay with Alpha-1-antitrypsin, 1 to 5 rank. In addition, in the assay with APOLIPOPROTEIN E, the “SEQUEST ranking (relative abundance in the Jacalin displacement fraction)” value lay within 11 to 15 rank.
